The test deals with intracellular proteome of ENR+CD and ENR organoids. Put plainly: LC-MS/MS TMT proteomics of ENR+CD versus ENR organoids. The test is classed as cell-based, C57BL/6 mice. The settings on record: for Average logFC / M1-1 Log2 Median Normalized / M1-2 Log2 Median Normalized / M2-1 Log2 Median Normalized / M2-2 Log2 Median Normalized: protein abundance, ENR+CD versus ENR organoids; for Average logFC: aggregate of the four sample pairs; for M1-1 Log2 Median Normalized: replicate M1-1; for M1-1 Log2 Median Normalized / M1-2 Log2 Median Normalized / M2-1 Log2 Median Normalized / M2-2 Log2 Median Normalized: log2 ratio; for M1-2 Log2 Median Normalized: replicate M1-2; for M2-1 Log2 Median Normalized: replicate M2-1; for M2-2 Log2 Median Normalized: replicate M2-2; for change: up = enriched in ENR+CD, down = enriched in ENR, FDR<0.05 and log fold change cut-off.

B1: P97314 (protein, UniProt P97314 1-193, looked up)
chain: MPVWGGGNKCGACGRTVYHAEEVQCDGRSFHRCCFLCMVCRKNLDSTTVAIHDEEIYCKSCYGKKYGPKGYGYGQGAGTLNMDRGERLGIKPESAQPHRPTTNPNTSKFAQKYGGAEKCSRCGDSVYAAEKIIGAGKPWHKNCFRCAKCGKSLESTTLTEKEGEIYCKGCYAKNFGPKGFGYGQGAGALVHAQ
modifications: full-length
Regarding B1, the “Average logFC” value is −1.204, the “M1-1 Log2 Median Normalized” value was −1.447, the “M1-2 Log2 Median Normalized” value is −1.021 and the “M2-1 Log2 Median Normalized” value was −1.3045. Further, the “M2-2 Log2 Median Normalized” value is recorded as −1.045 and the change entry is “down”.

B2: P63158 (protein, UniProt P63158 1-215, looked up)
chain: MGKGDPKKPRGKMSSYAFFVQTCREEHKKKHPDASVNFSEFSKKCSERWKTMSAKEKGKFEDMAKADKARYEREMKTYIPPKGETKKKFKDPNAPKRPPSAFFLFCSEYRPKIKGEHPGLSIGDVAKKLGEMWNNTAADDKQPYEKKAAKLKEKYEKDIAAYRAKGKPDAAKKGVVKAEKSKKKKEEEDDEEDEEDEEEEEEEEDEDEEEDDDDE
modifications: full-length
Consider B2, for which the “Average logFC” value is reported as −1.338, the “M1-1 Log2 Median Normalized” value is −1.875, the “M1-2 Log2 Median Normalized” value is listed as −1.062 and the “M2-1 Log2 Median Normalized” value is reported as −1.2145. The “M2-2 Log2 Median Normalized” value is on record as −1.339 and the change entry is “down”.

B3: P60824 (protein, UniProt P60824 1-172, looked up)
chain: MASDEGKLFVGGLSFDTNEQALEQVFSKYGQISEVVVVKDRETQRSRGFGFVTFENIDDAKDAMMAMNGKSVDGRQIRVDQAGKSSDNRSRGYRGGSAGGRGFFRGGRSRGRGFSRGGGDRGYGGGRFESRSGGYGGSRDYYASRSQGGSYGYRSSGGSYRDSYDSYATHNE
modifications: full-length
For B3, the “Average logFC” value was found to be 1.155, the “M1-1 Log2 Median Normalized” value is 0.902, the “M1-2 Log2 Median Normalized” value came to 1.138 and the “M2-1 Log2 Median Normalized” value was determined as 1.3145. In addition, the “M2-2 Log2 Median Normalized” value stood at 1.267 and the change entry is “up”.

B4: P97290 (protein, UniProt P97290 1-504, looked up)
chain: MASRLTPLTLLLLLLAGDRAFSDPEATSHSTQDPLEAQAKSRESFPERDDSWSPPEPTVLPSTWPTTSVAITITNDTMGKVANESFSQHSQPAAQLPTDSPGQPPLNSSSQPSTASDLPTQATTEPFCPEPLAQCSDSDRDSSEAKLSEALTDFSVKLYHAFSATKMAKTNMAFSPFSIASLLTQVLLGAGDSTKSNLESILSYPKDFACVHQALKGFSSKGVTSVSQIFHSPDLAIRDTYVNASQSLYGSSPRVLGPDSAANLELINTWVAENTNHKIRKLLDSLPSDTCLVLLNAVYLSAKWKITFEPKKMMAPFFYKNSMIKVPMMSSVKYPVAQFDDHTLKAKVGQLQLSHNLSFVIVVPVFPKHQLKDVEKALNPTVFKAIMKKLELSKFLPTYLTMPHIKVKSSQDMLSVMEKLEFFDFTYDLNLCGLTEDPDLQVSAMKHETVLELTESGVEAAAASAISFGRSLPIFEVQRPFLFLLWDQQHRFPVFMGRVYDPRG
modifications: full-length
In the case of B4, the “Average logFC” value came out at 1.245, the “M1-1 Log2 Median Normalized” value was 1.362, the “M1-2 Log2 Median Normalized” value came out at 1.123 and the “M2-1 Log2 Median Normalized” value was determined as 1.2185. Moreover, the “M2-2 Log2 Median Normalized” value is on record as 1.278 and the change result is reported as “up”.

B5: P70429 (protein, UniProt P70429 1-414, looked up)
chain: MSEQSICQARASVMVYDDTSKKWVPIKPGQQGFSRINIYHNTASSTFRVVGVKLQDQQVVINYSIVKGLKYNQATPTFHQWRDARQVYGLNFASKEEATTFSNAMLFALNIMNSQEGGPSTQRQVQNGPSPEEMDIQRRQVMEQQHRQESLERRISATGPILPPGHPSSAASTTLSCSGPPPPPPPPVPPPPTGSTPPPPPPLPAGGAQGTNHDESSASGLAAALAGAKLRRVQRPEDASGGSSPSGTSKSDANRASSGGGGGGLMEEMNKLLAKRRKAASQTDKPADRKEDESQTEDPSTSPSPGTRATSQPPNSSEAGRKPWERSNSVEKPVSSLLSRTPSVAKSPEAKSPLQSQPHSRVKPAGSVNDVGLDALDLDRMKQEILEEVVRELHKVKEEIIDAIRQELSGISTT
modifications: full-length
Regarding B5, the “Average logFC” value is recorded as 1.275, the “M1-1 Log2 Median Normalized” value stood at 1.275, the “M1-2 Log2 Median Normalized” value worked out at 1.519 and the “M2-1 Log2 Median Normalized” value was found to be 1.2085. In addition, the “M2-2 Log2 Median Normalized” value turned out to be 1.206 and the change result is “up”.

B6: P56395 (protein, UniProt P56395 1-134, looked up)
chain: MAGQSDKDVKYYTLEEIQKHKDSKSTWVILHHKVYDLTKFLEEHPGGEEVLREQAGGDATENFEDVGHSTDARELSKTYIIGELHPDDRSKIAKPSDTLITTVESNSSWWTNWVIPAISALAVALMYRLYMAED
modifications: full-length
In the case of B6, the “Average logFC” value was −1.382, the “M1-1 Log2 Median Normalized” value is given as −1.162, the “M1-2 Log2 Median Normalized” value is listed as −0.964 and the “M2-1 Log2 Median Normalized” value is −1.6925. In addition, the “M2-2 Log2 Median Normalized” value is −1.71 and the change entry is listed as “down”.

B7: P56695 (protein, UniProt P56695 1-890, looked up)
chain: MNSGTPPPSPSGPPPPPAPQPQARARLNATASLEQDKIEPPRAPRPQADPSAGRSAGEAAAPEPRAPQTGSREETDRAGPMKADVEIPFEEVLEKAKAGDPKAQTEVGKHYLRLANDADEELNSCSAVAWLILAAKQGRREAVKLLRRCLADRKGITSENEAEVKQLSSETDLERAVRKAALVMYWKLNPKKKKQVAVSELLENVGQVNEQDGGAQPGPVPKSLQKQRRMLERLVSSESKNYIALDDFVELTKKYAKGIIPTNLFLQDEDEDEDELAGKSPEDLPLRQKVVKYPLHAIMEIKEYLIDVASKAGMHWLSTIVPTHHINALIFFFIISNLTIDFFAFFIPLVVFYLSFVSMVICTLKVFQDSKAWENFRTLTDLLLRFEPNLDVEQAEVNFGWNHLEPYIHFLLSVVFVIFSFPLASKDCIPCSELAVISTFFTVTSYMSLSSSAEPYTRRALVTEVAAGLLSLLPTVPVDWRFLKVLGQTFFTVPVGHFIILNVSLPCLLYVYLFYLFFRMAQLRNFKGTYCYLVPYLVCFMWCELSVVILLQSTGLGLVRASIGYFLFLFALPILVAGLALMGTVQFARWFLSLDLTKIMVTTVICGVPLLFRWWTKANFSVMGMVKSLTKSSMVKLILVWLTAILLFCWFYVYRSEGMKVYNSTLTWQQYGFLCGPRAWKETNMARTQILCSHLEGHRVTWTGRFKYVRVTEIDNSAESAINMLPFFLGDWMRCLYGEAYPSCSSGNTSTAEEELCRLKQLAKHPCHIKKFDRYKFEITVGMPFGTNGNRGHEEDDITKDIVLRASSEFKDVLLNLRQGSLIEFSTILEGRLGSKWPVFELKAISCLNCMTQLSPARRHVKIEQDWRSTVHGALKFAFDFFFFPFLSAA
modifications: full-length
For B7, the “Average logFC” value was determined as 1.149, the “M1-1 Log2 Median Normalized” value was found to be 1.527, the “M1-2 Log2 Median Normalized” value worked out at 0.901 and the “M2-1 Log2 Median Normalized” value was found to be 0.7335. Further, the “M2-2 Log2 Median Normalized” value is given as 1.433 and the change entry is recorded as “up”.

B8: P81117 (protein, UniProt P81117 1-420, looked up)
chain: MRWRIIQVQYCFLLVPCMLTALEAVPIDVDKTKVHNTEPVENARIEPPDTGLYYDEYLKQVIEVLETDPHFREKLQKADIEEIRSGRLSQELDLVSHKVRTRLDELKRQEVGRLRMLIKAKLDALQDTGMNHHLLLKQFEHLNHQNPNTFESRDLDMLIKAATADLEQYDRTRHEEFKKYEMMKEHERREYLKTLSEEKRKEEESKFEEMKRKHEDHPKVNHPGSKDQLKEVWEETDGLDPNDFDPKTFFKLHDVNNDGFLDEQELEALFTRELEKVYNPQNAEDDMIEMEEERLRMREHVMSEIDNNKDRLVTLEEFLRATEKKEFLEPDSWETLDQQQLFTEDELKEYESIIAIQENELKKRAEELQKQKEDLQRQHDHLEAQKQEYHQAVQHLEQKKLQQGIAPSGPAGELKFEPHT
modifications: full-length
For the molecule B8, the “Average logFC” value is listed as 1.372, the “M1-1 Log2 Median Normalized” value was 1.736, the “M1-2 Log2 Median Normalized” value is listed as 1.385 and the “M2-1 Log2 Median Normalized” value came out at 1.0905. For the same molecule, the “M2-2 Log2 Median Normalized” value amounted to 1.276 and the change entry was “up”.

B9: P55050 (protein, UniProt P55050 1-132, looked up)
chain: MAFDGTWKVDRNENYEKFMEKMGINVMKRKLGAHDNLKLTITQDGNKFTVKESSNFRNIDVVFELGVNFPYSLADGTELTGAWTIEGNKLIGKFTRVDNGKELIAVREVSGNELIQTYTYEGVEAKRFFKKE
modifications: full-length
As to B9, the “Average logFC” value is on record as −1.721, the “M1-1 Log2 Median Normalized” value was −1.558, the “M1-2 Log2 Median Normalized” value is listed as −2.656 and the “M2-1 Log2 Median Normalized” value is −2.1955. The “M2-2 Log2 Median Normalized” value was −0.474 and the change entry was “down”.

The values are drawn from patent US11994512B2, “Single-cell genomic methods to generate ex vivo cell systems that recapitulate in vivo biology with improved fidelity” (Massachusetts Institute of Technology, priority 2018, dated 2024).
